Source: patent US20240016917A1 (ACADEMIA SINICA, published 2024)

What was measured:
[1] = target: T1, SARS-CoV-2 S protein (entire S ectodomain) (SARS-CoV-2, UniProt P0DTC2 14-1209)
Beta = Beta (SARS-CoV-2)
Alpha = Alpha (SARS-CoV-2)
[2] = target: T1, SARS-CoV-2 S protein (entire S …); test: biolayer interferometry (BLI)

B1: monoclonal antibody (mAb) m31A7 (antibody, V domains shown)
VH: EVQLQQSGPEMVKPGASVKISCKTSGYTFTEYTIYWVKQSHGKSLEWLGGINPNIGDTTYNQKFKGKATLTVDTSSSTAYMELRSLTSEDSAVYYCAREVYNYSFAYWGQGTLVTVSA
VL: DIVMSQSPSSLAVSVGEKVTMSCKSSQSLLYSSNQKNYLAWYQQKLGQTPKLLIYWASSRESGVPDRFTGSGSGTDFTLTISSVRAEDLAVYYCQQYYRYPLTFGVGTKLELKR
EC50 [1]: 0.0312 nM
EC50 (Beta): 0.0325 nM
EC50 (WT): 0.0685 nM
EC50 (D614G): 0.0321 nM
EC50 (Alpha): 0.0446 nM
Kd [2]: 0.0709 nM
